# Read-outs that look alike come from different tables or passages of the source.
# B1: PriA DNA helicase (enzyme, E. coli, UniProt P17888 1-732, looked up)
# chain: MPVAHVALPVPLPRTFDYLLPEGMTVKAGCRVRVPFGKQQERIGIVVSVSDASELPLNELKAVVEVLDSEPVFTHSVWRLLLWAADYYHHPIGDVLFHALPILLRQGRPAANAPMWYWFATEQGQAVDLNSLKRSPKQQQALAALRQGKIWRDQVATLEFNDAALQALRKKGLCDLASETPEFSDWRTNYAVSGERLRLNTEQATAVGAIHSAADTFSAWLLAGVTGSGKTEVYLSVLENVLAQGKQALVMVPEIGLTPQTIARFRERFNAPVEVLHSGLNDSERLSAWLKAKNGEAAIVIGTRSALFTPFKNLGVIVIDEEHDSSYKQQEGWRYHARDLAVYRAHSEQIPIILGSATPALETLCNVQQKKYRLLRLTRRAGNARPAIQHVLDLKGQKVQAGLAPALITRMRQHLQADNQVILFLNRRGFAPALLCHDCGWIAECPRCDHYYTLHQAQHHLRCHHCDSQRPVPRQCPSCGSTHLVPVGLGTEQLEQTLAPLFPGVPISRIDRDTTSRKGALEQQLAEVHRGGARILIGTQMLAKGHHFPDVTLVALLDVDGALFSADFRSAERFAQLYTQVAGRAGRAGKQGEVVLQTHHPEHPLLQTLLYKGYDAFAEQALAERRMMQLPPWTSHVIVRAEDHNNQHAPLFLQQLRNLILSSPLADEKLWVLGPVPALAPKRGGRWRWQILLQHPSRVRLQHIINGTLALINTIPDSRKVKWVLDVDPIEG
# Experiments:
# Test in all cases: ITC
# [1] = target: T1, Escherichia coli single-stranded DNA binding protein (SSB) (E. coli, UniProt P0AGE0 1-178)
# [2] = target: T1, Escherichia coli single-stranded DNA …; remark: listed apart in the source
# [3] = target: T1, Escherichia coli single-stranded DNA …; remark: listed apart in the source
# [4] = target: T1, Escherichia coli single-stranded DNA …; remark: listed apart in the source
# T1 sequence (P0AGE0 whole entry): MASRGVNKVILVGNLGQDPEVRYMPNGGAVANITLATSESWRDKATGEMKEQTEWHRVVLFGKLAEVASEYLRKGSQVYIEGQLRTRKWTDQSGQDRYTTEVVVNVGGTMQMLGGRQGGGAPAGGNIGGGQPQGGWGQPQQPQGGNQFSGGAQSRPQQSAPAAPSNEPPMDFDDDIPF
binder,measurement,setting,value
B1,dH,[1],-5.1 kcal/mol
same,stoichiometry N,[1],3.7
same,dH,[2],-6.8 kcal/mol
same,stoichiometry N,[2],4.6
same,dH,[3],-28 kcal/mol
same,stoichiometry N,[3],1.7
same,dH,[4],-28.7 kcal/mol
same,stoichiometry N,[4],5.2

# — article PMC2583361 (Critical reviews in biochemistry and molecular biology, 2008)
